# Read-outs that look alike come from different tables or passages of the source.
# B1: ACI-8041-1F11B5-Ab1 (antibody, mouse IgG2a, kappa, V domains shown)
# VH: QVQLKESGPGLVAPSQSLSITCTVSGFSLTNYGVSWIRQPPGKGLEWLGVIWGDGSTNYHSALISRLSISKDNSKSQVFLKLNSLQTDDTATYYCTKGAGSWGQGIPVTVSA
# VL: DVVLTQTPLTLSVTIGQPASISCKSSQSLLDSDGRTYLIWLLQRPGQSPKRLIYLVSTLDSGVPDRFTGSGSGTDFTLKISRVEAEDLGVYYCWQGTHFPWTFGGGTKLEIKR
# notes: Murine IgG2a/kappa; also called ACI-8041-1F111B5-Ab1; ACI-8041- F1B5-Ab1
# B2: ACI-8041-9D7E1-Ab1 (antibody, mouse IgG2a, kappa, V domains shown)
# VH: EVMLVESGGGLVKPGGSLKLSCAASGFTFSSYAMSWVRQTPEKRLEWVATISSGGNYTYCPDSVKGRFTISRDNAKNTLYLQMSSLRSEDTAMYYCAAYAYDDGYYFDYWGQGTTLTVSS
# VL: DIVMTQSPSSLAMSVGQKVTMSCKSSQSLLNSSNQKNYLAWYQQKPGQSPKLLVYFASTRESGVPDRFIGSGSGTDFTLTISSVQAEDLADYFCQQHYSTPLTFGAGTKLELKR
# notes: Murine IgG2a/kappa
# B3: ACI-8041-10H3B11-Ab1 (antibody, mouse IgG2a, kappa, V domains shown)
# VH: EVMLVESGGGLVKPGGSLKLSCAASGFTFSSYAMSWVRQTPEKRLEWVATISSGGNYTYCPDSVKGRFTISRDNAKNTLYLQMSSLRSEDTAMYYCAAYAYDDGYYFDYWGQGTTLTVSS
# VL: DIQMTQSPSSLSASLGGKVTITCKASQDINKYIAWYQHKPGKGPRLLIHYTSTLQPGIPSRFSGSGSGRDYSFSISNLGPEDIATYYCLQYDNLLTFGGGTKLEIKR
# notes: Murine IgG2a/kappa; Same VH as ACI-8041-9D7E1-Ab1; also called ACI-8041-11B3B11-Ab1; AC-8041-13B11-Ab
# B4: ACI-31-25B1-Ab2 (murine IgG2a with a lambda light chain) (antibody, V domains shown)
# VH: EVQLVESGGDLVKPGGSLKLSCAASRFTFSTYGMSWVRQTPDKRLEWVATISSGRSYTYYADSVKGRFTISRDNAKNTLYLQMSSLKSEDTAMYYCARNSNNQRDYYAMDYWGQGTSVTVSS
# VL: QLVLTQSSSASFSLGASAKLTCTLSSQHITYTIEWYQQQPLKPPKYVMVLEKDGSHSTGDGIPDRFSGSSSGADRYLSISNIQPEDEAVYICGVGDAIKEQFVYVFGGGTKVTVLG
# notes: also called AC-31-25B1-Ab2
# B5: ACI-24-41F12-Ab3 (IgG2a isotype) (antibody, V domains shown)
# VH: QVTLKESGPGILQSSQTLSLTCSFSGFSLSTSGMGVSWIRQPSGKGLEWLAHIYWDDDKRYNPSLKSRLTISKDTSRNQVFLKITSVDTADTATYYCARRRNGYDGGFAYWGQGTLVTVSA
# VL: DVLMTQTPLSLPVSLGDQASISCRSSQSIVHSNGNTYLEWYLQKPGQSPKLLIYKVSNRFSGVPDRFSGSGSGTDFTLKISRVEAEDLGVYYCFQGSHVPLTFGAGTKLELKR
# notes: Recombinant murine IgG2a/kappa with the same VH/VL as ACI-24-41F12-Ab2; Biotinylated when used as detection antibody in the sandwich ELISA; also called ACI-24-41F12-Ab3-rec1
# B6: ACI-8037-103H5-Ab2 (antibody, mouse IgG2a, kappa, V domains shown)
# VH: QVTLKESGPGILKPSQTLSLTCSFSGFSLSTSGMGVGWIRQPSGKGLEWLAHIWWDDDKYYNPSLKSRLTISKDSSRNQVFLKITSVDTADTATYYCVRRGTRLEDYFDFWGQGTTLTVSS
# VL: DVLMTQTPLSLPVSLGDQASISCRSSRSIVHSNGNTYLEWYLQKPGQSPKLLIFKVSNRFSGVPDRFSGSGSGTDFTLKISRVEAEDQGVYYCFQGSHVPLTFGAGTKLELKR
# notes: Murine IgG2a/kappa
# B7: ACI-8037-109F4-Ab1 (antibody, mouse IgG2a, kappa, V domains shown)
# VH: QVTLKESGPGILQPSQTLSLTCSFSGFSLSTSGMGVSWIRQPSGKGLEWLAHIYWDDDKRYNPSLKSRLTISKDTSRNQVFLKITSVDTADAGTYYCARRPIRTVVDAMDYWGQGTSVTVSL
# VL: DVLMTQTPLSLPVSLGDQASISCRSSQTIVHSNGNTYLEWYLQKPGQSPNLLIYKVSNRFSGVPDRFSGSGSGTDFTLKISRVEAEDLGVYYCFQGSHVPLTFGAGTKLELKR
# notes: Murine IgG2a/kappa
# B8: ACI-8039-306H5-Ab1 (antibody, mouse IgG2a, kappa, V domains shown)
# VH: QVTLKESGPGILKPSQTLSLTCSFSGFSLSTSGMGVGWIRQPSGKGLEWLAHIWWDDDKYYNPSLKSQLTISKDTSRNQIFLKITSVDTADTATYYCVRSLYFDYWGQGTTLTVSS
# VL: DVVMTQTPLSLPVSLGDQASISCRSSQSLVHSNGNTYLHWYLQKPGQSPKLLIYKVSNRFSGVPDRFSGSGSGTDFTLKISRVEAEDLGVYFCSQSTHVPLTFGAGTKLELKR
# notes: Murine IgG2a/kappa; also called AC-8039-306H5-Ab1
# B9: ACI-8039-307F7-Ab2 (antibody, mouse IgG2a, kappa, V domains shown)
# VH: QVQLQQPGAELVRPGGSVKLSCKASGYSFTNYWMNWVKQRPGQGLEWIGMIHPSDSETRLNQKFKDKATLTVDKSSSTAYLQLSSPTSEDSAVYYCAKLLLYYFDYWGQGTTLTVSS
# VL: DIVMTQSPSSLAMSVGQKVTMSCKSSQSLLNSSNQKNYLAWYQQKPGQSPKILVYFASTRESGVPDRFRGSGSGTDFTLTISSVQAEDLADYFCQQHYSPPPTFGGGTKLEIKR
# notes: Murine IgG2a/kappa; also called AC-8039-307F7-Ab2
# B10: ACI-8039-309D9-Ab2 (antibody, mouse IgG2a, kappa, V domains shown)
# VH: QVQLQQSGPQLVRPGASVKISCKASGNSFTSYWMHWVKQRPGQGLEWIGMIDPSDSETRLNQKFKDKATLTVDKSSSTAYMQLSSPTSEDSAVYYCAGLYFTLDYWGQGTSVTVSS
# VL: DILMTQSPSSLTVSAGEKVTMSCKSSQSLLASGNQNNYLAWHQQKPGRSPKILIIWASTRVSGVPDRFIGSGSGTDFTLTINSVQAEDLAVYYCQQSYSAPLTFGAGTKLELKR
# notes: Murine IgG2a/kappa; also called AC-8039-309D9-Ab2
# B11: ACI-8041-2B9H5-Ab1 (antibody, mouse IgG2a, kappa, V domains shown)
# VH: QVQLQQSDAELVKPGASVKISCKVSGYTFTDHPIHWMKQRPDQGLEWIGYFYPRDSSTHYNEKFKGKATLTADKSSSTAYMQLNSLTSEDSAVYFCARSMGYWGQGTSVTVSS
# VL: DIKMTQSPSSMYASLGERVTITCKASQDINSYLSWFQQKPGKSPKTLIYRANRLVDGVPSRFSGSGSGQDYSLTISSLDYEDMGIYYCLQYDEFPPTFGAGTKLELKR
# notes: Murine IgG2a/kappa; also called AC-8041-2B95-Ab1
# B12: ACI-8041-3G11B3-Ab1 (antibody, mouse IgG2a, kappa, V domains shown)
# VH: QVQLQQSGAELVKPGASVKLSCKASGYTFINYYIYWVKQRPGQGLEWIGEIIPSNDGTNFNEKFKTKATLTVDKSSSTAYMQLSSLTSEDSAVYYCTATGTVWGQGTLVTVSA
# VL: DVLMTQTPLSLPVSLGDQASISCRSSQSIVHSNGITYLEWYLQKPGQSPKLLIYKVSNRFSGVPDRFSGSGSGTDFTLKISRVEAEDLGVYYCFQGSHVPWTFGGGTKLEIKR
# notes: Murine IgG2a/kappa; also called ACD-8041-3G11B3-Ab1
# B13: ACI-8041-4G6D2-Ab1 (antibody, mouse IgG2a, kappa, V domains shown)
# VH: QVQLQQSGAELVRPGASVKLSCKASGYTFTSYYMYWVKQRPGQGLEWIGEIIPSNGDTNFNEKFRSKATLTVDKSSSTAYMQLSSLTSEDSAVYYCTATGTVWGQGTLVTVSA
# VL: DVLMTQTPLSLPVSLGDQASISCRSSQSIVHSNGNTYLEWYLQKPGQSPKLLIYKVSNRFSGVPDRFSGSGSGTDFTLKISRVEAEDLGVYYCFQGSHVPWTFGGGTKLEIKR
# notes: Murine IgG2a/kappa
# B14: ACI-8041-5A2D4-Ab1 (antibody, mouse IgG2a, kappa, V domains shown)
# VH: EVQLQQSGPELVKPGASVKISCKTSGYTFTENTMHWVKQIHGKSLEWIGGINPNNGVTNNNQKFEGKATLTVDKSSSTAYMELRSLTSEDSAVYYCARSDYDALYYSMDCWGQGTSVTVSS
# VL: EIVLTQSPTTMAASPGEKITITCSGSSSIISNYLHWYQQKPGFSPKLLIYRTSNLASGVPTRFSGSGSGTSYSLTIGTMEAEDVATYYCQQGSSIPFTFGSGTKLEIKR
# notes: Murine IgG2a/kappa
# B15: ACI-8041-5A6H9-Ab1 (antibody, mouse IgG2a, kappa, V domains shown)
# VH: DVQLQESGPGLVKPSQSLSLTCTVTGYSITSDYAWNWIRQFPGNKLEWMGYIDYSGITSYNPSLKSRISITRDTSKNQFFLQLNSVTTEDSATYYCARISGLDYDVRAGWFASWGQGTLVTVSA
# VL: DIVMTQAAFSNPVTLGTSVSISCRSSKSLLHSNGITYLYWYLQKPGQSPQLLIYQMSNLASGVPDRFSSSGSGTDFTLRISRVEAEDVGVYYCAQNLERPLTFGAGTKLELKR
# notes: Murine IgG2a/kappa; also called ACI-8041-5A61H9-Ab1; AC-8041-5A619-Ab1
# B16: ACI-8041-6C3C4-Ab1 (antibody, mouse IgG2a, kappa, V domains shown)
# VH: EVQLQQSGPELVKPGASVNISCKTSGYTFTEYTMHWMKQSHGKSLEWIGGINPNNGVTGYNQKFKGRATLTVDKSSSTAYMELRSLTSEDSAVYYCARSDYDDLYYAMDYWGQGTSVTVSS
# VL: EIVLTQSPTTMAASPGEKITITCSASSSISSNYLHWYQQKPGFSPKLLIYRTSNLASGVPARFSGSGSGTSYSLTIGTMEAEDVATYYCQQGSSIPFTFGSGTKLEIKR
# notes: Murine IgG2a/kappa; also called ACD-8041-63C4-Ab1
# Experiments:
# [1] = biological target: T1, full-length sAPPalpha fragment (UniProt P05067-4 18-612, limits assumed); experiment: indirect ELISA, sAPPalpha coated
# T1 construct: domain: sAPPalpha; Bought protein; also called soluble APP alpha; soluble amyloid precursor protein alpha
# Method: (§1) Antibody target binding was evaluated by an enzyme-linked immunosorbent assay (ELISA). Briefly, Nunc MaxiSorp 96-well plates (Nunc) were coated for 18 h at 4° C. with 50 μL of 10 pg/mL Abeta1-42 or bovine serum albumin (BSA, Sigma) diluted in PBS. In selected assays, the full-length sAPPalpha fragment (Sigma) was additionally included by coating wells as described above, but at 4 pg/mL (0.04 μM). Plates were then washed 4-times with 300 μL of PBS containing 0.05% Tween20 (Millipore). To block non-specific binding to the plate, freshly prepared solution of PBS containing 0.05% Tween20 and 1% BSA, was added to each well (100 μL/well) and the plates were incubated for 1 h at 37° C. Primary antibodies were diluted to 100 nM in PBS containing 1% BSA and 0.05% Tween20, followed by 3-fold serial dilutions in duplicates. Solutions were added to plates at 50 μL/well and incubated for 1 h at 37° C. Subsequently, the plates were washed 4-times with 300 μL of PBS containing 0.05% Tween20. Plates were then incubated with horseradish peroxidase (HRP) conjugated goat anti-mouse secondary IgG (Abcam) for 1 h at 37° C. After final wash step (4-times with 300 μL of PBS containing 0.05% Tween20), plates were incubated with 3,3′,5,5′-tetramethylbenzidine (TMB) substrate (BD Biosciences) and reaction stopped with a Stop Solution (Sigma). Finally, optical densities (O.D.) were read at 450 nm absorption wavelength using a Tecan Infinite plate reader. Measured values are expressed as mean O.D. from a duplicate run ±1 standard deviation of the mean (S.D.).
# [2] = biological target: T2, Human Abeta1-42 biotinylated at the peptide C-terminus (human, biotin at the peptide C-terminus); experiment: target capture ELISA: antibody held by anti-mouse Fc, biotinylated Abeta1-42 titrated in solution
# T2 construct: also called biotinylated Abeta1-42
# Method: (§2) Briefly, a Nunc MaxiSorp 96-well plate (Nunc) was coated for 18 h at 4° C. with 50 μL of 5 pg/mL goat anti-mouse IgG, Fc-gamma fragment specific antibody (Jackson Immune Research) diluted in carbonate-bicarbonate buffer. The plate was then washed 4-times with 300 μL of PBS containing 0.05% Tween20 (Millipore). To block non-specific binding to the plate, freshly prepared solution of PBS containing 0.05% Tween20 and 1% BSA, was added to each well (100 μL/well) and the plate was incubated for 1 h at 37° C. […] Subsequently, the plate was washed 4-times with 300 μL of PBS containing 0.05% Tween20. […] After washing 4-times with 300 μL of PBS containing 0.05% Tween20, the plate was incubated for 45 min at ambient temperature with 50 μL/well of streptavidin-HRP (R&D systems) diluted 1:200 in PBS containing 1% BSA and 0.05% Tween20. The plate was again washed 4-times with 300 μL of PBS containing 0.05% Tween20 before incubating at ambient temperature for 20 or 30 min with 50 or 100 μL/well of 3,3′,5,5′-tetramethylbenzidine (TMB) enzyme substrate (BD Bioscience). Reaction was stopped with a 1.2 M HCl (Sigma) solution. Finally, optical densities (O.D.) were read at 450 nm absorption wavelength using a Tecan Infinite plate reader.
# [3] = biological target: T2, Human Abeta1-42 biotinylated at the …; experiment: capture ELISA: antibody held on anti-mouse IgG Fc-coated plate, C-terminally biotinylated Abeta1-42 titrated in solution, streptavidin-HRP, O.D. 450 nm
# Method: as §2
# [4] = biological target: T2, Human Abeta1-42 biotinylated at the …; experiment: as above; remark: listed apart in the source
# Method: as §2
# [5] = biological target: T2, Human Abeta1-42 biotinylated at the …; experiment: as above; remark: listed apart in the source
# Method: as §2
# [6] = biological target: T3, Abeta1-42 (human); experiment: indirect ELISA, Abeta1-42 coated, antibody titrated
# T3 construct: coated on plates in the direct ELISA, in solution as analyte in the sandwich ELISA; also called human Abeta 1-42; amyloid-beta 1-42
# Method: as §1
# [7] = biological target: T4, bovine serum albumin (bovine, UniProt P02769 25-607); experiment: indirect ELISA, plate coated with BSA, antibody titrated, anti-mouse IgG-HRP, O.D. 450 nm
# T4 construct: Negative control antigen; also called BSA
# Method: (§3) Antibody target binding was evaluated by an enzyme-linked immunosorbent assay (ELISA). Briefly, Nunc MaxiSorp 96-well plates (Nunc) were coated for 18 h at 4° C. with 50 μL of 10 pg/mL Abeta1-42 or bovine serum albumin (BSA, Sigma) diluted in PBS. In selected assays, the full-length sAPPalpha fragment (Sigma) was additionally included by coating wells as described above, but at 4 pg/mL (0.04 μM). Plates were then washed 4-times with 300 μL of PBS containing 0.05% Tween20 (Millipore). To block non-specific binding to the plate, freshly prepared solution of PBS containing 0.05% Tween20 and 1% BSA, was added to each well (100 μL/well) and the plates were incubated for 1 h at 37° C. Primary antibodies were diluted to 100 nM in PBS containing 1% BSA and 0.05% Tween20, followed by 3-fold serial dilutions in duplicates. Solutions were added to plates at 50 μL/well and incubated for 1 h at 37° C. Subsequently, the plates were washed 4-times with 300 μL of PBS containing 0.05% Tween20. Plates were then incubated with horseradish peroxidase (HRP) conjugated goat anti-mouse secondary IgG (Abcam) for 1 h at 37° C. […] Finally, optical densities (O.D.) were read at 450 nm absorption wavelength using a Tecan Infinite plate reader. Measured values are expressed as mean O.D. from a duplicate run ±1 standard deviation of the mean (S.D.).
# [8] = biological target: T3, Abeta1-42; experiment: indirect ELISA, plate coated with Abeta1-42, antibody titrated, anti-mouse IgG-HRP, O.D. 450 nm
# Method: as §3
# [9] = biological target: T2, Human Abeta1-42 biotinylated at the …; experiment: capture ELISA: antibody held on anti-mouse IgG Fc-coated plate, C-terminally biotinylated Abeta1-42 titrated in solution, streptavidin-HRP, O.D. 450 nm; remark: listed apart in the source
# Method: as §2
# [10] = biological target: T3, Abeta1-42; experiment: sandwich ELISA: ACI-31-25B1-Ab2 coated as capture, analyte Abeta1-42 titrated, biotinylated ACI-24-41F12-Ab3 as detection, streptavidin-HRP, O.D. 450 nm
# Method: After washing 4-times with 300 μL of PBS containing 0.05% Tween20, the plate was incubated for 45 min at ambient temperature with 50 μL/well of streptavidin-HRP (R&D systems) diluted 1:200 in PBS containing 1% BSA and 0.05% Tween20. The plate was again washed 4-times with 300 μL of PBS containing 0.05% Tween20 before incubating at ambient temperature for 20 or 30 min with 50 or 100 μL/well of 3,3′,5,5′-tetramethylbenzidine (TMB) enzyme substrate (BD Bioscience). Reaction was stopped with a 1.2 M HCl (Sigma) solution. Finally, optical densities (O.D.) were read at 450 nm absorption wavelength using a Tecan Infinite plate reader.
# Briefly, a Nunc MaxiSorp 96-well plate (Nunc) was coated for 18 h at 4° C. with 50 μL of capture antibody at 5 μg/mL, diluted in carbonate-bicarbonate buffer. The plate was then washed and blocked as described in the preceding paragraph.
# [11] = biological target: T2, Human Abeta1-42 biotinylated at the …; experiment: target capture ELISA
# Method: as §2
# [12] = biological target: T4, bovine serum albumin; experiment: indirect ELISA, plate coated with BSA, antibody titrated, anti-mouse IgG-HRP, O.D. 450 nm; remark: listed apart in the source
# Method: as §3
# [13] = biological target: T3, Abeta1-42; experiment: indirect ELISA, plate coated with Abeta1-42, antibody titrated, anti-mouse IgG-HRP, O.D. 450 nm; remark: listed apart in the source
# Method: as §3
# T1 sequence (P05067 other isoform, or with tags, fused parts or gaps limits assumed): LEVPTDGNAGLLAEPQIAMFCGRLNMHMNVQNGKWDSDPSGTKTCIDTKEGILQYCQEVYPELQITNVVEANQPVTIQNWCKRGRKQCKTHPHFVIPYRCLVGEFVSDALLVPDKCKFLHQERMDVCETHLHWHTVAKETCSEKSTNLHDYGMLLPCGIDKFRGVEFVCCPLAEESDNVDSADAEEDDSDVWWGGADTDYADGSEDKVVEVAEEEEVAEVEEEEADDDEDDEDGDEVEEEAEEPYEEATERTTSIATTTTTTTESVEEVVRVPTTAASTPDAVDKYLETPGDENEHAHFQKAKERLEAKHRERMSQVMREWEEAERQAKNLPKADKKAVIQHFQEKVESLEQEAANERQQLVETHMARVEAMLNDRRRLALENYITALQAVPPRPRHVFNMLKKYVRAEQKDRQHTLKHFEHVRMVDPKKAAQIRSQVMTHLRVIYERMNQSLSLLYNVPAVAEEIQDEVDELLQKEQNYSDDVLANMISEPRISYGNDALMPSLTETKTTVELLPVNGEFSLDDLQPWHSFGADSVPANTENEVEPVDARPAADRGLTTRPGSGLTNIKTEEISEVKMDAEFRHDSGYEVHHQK
Binder,binding result [1],binding result [11],also measured
B1,no binding,–,Kd [2]: 343 pM; EC50 (read off the curve) [3]: ~300 pM
B2,no binding,–,Kd [2]: 1100 pM; EC50 (read off the curve) [4]: ~1000 pM
B3,no binding,–,Kd [2]: 2600 pM; EC50 (read off the curve) [5]: ~2000 pM
B4,–,–,Kd [6]: 41 pM; Kd [2]: 312 pM; binding result [7]: no binding (tested: 100 nM); EC50 (read off the curve) [8]: ~40 pM; EC50 (read off the curve) [9]: ~400 pM; EC50 (read off the curve) [10]: ~9000 pM
B5,–,binds,Kd [6]: 66 pM; binding result [12]: no binding (tested: 100 nM); EC50 (read off the curve) [13]: ~70 pM
B6,–,binds,–
B7,–,binds,–
B8,no binding,binds,–
B9,no binding,binds,–
B10,no binding,binds,–
B11,no binding,binds,–
B12,no binding,binds,–
B13,no binding,binds,–
B14,no binding,binds,–
B15,no binding,binds,–
B16,no binding,binds,–
